B1: Glucocorticoid receptor (Homo sapiens), P04150-1 (parent)
chain: MDSKESLTPGREENPSSVLAQERGDVMDFYKTLRGGATVKVSASSPSLAVASQSDSKQRRLLVDFPKGSVSNAQQPDLSKAVSLSMGLYMGETETKVMGNDLGFPQQGQISLSSGETDLKLLEESIANLNRSTSVPENPKSSASTAVSAAPTEKEFPKTHSDVSSEQQHLKGQTGTNGGNVKLYTTDQSTFDILQDLEFSSGSPGKETNESPWRSDLLIDENCLLSPLAGEDDSFLLEGNSNEDCKPLILPDTKPKIKDNGDLVLSSPSNVTLPQVKTEKEDFIELCTPGVIKQEKLGTVYCQASFPGANIIGNKMSAISVHGVSTSGGQMYHYDMNTASLSQQQDQKPIFNVIPPIPVGSENWNRCQGSGDDNLTSLGTLNFPGRTVFSNGYSSPSMRPDVSSPPSSSSTATTGPPPKLCLVCSDEASGCHYGVLTCGSCKVFFKRAVEGQHNYLCAGRNDCIIDKIRRKNCPACRYRKCLQAGMNLEARKTKKKIKGIQQATTGVSQETSENPGNKTIVPATLPQLTPTLVSLLEVIEPEVLYAGYDSSVPDSTWRIMTTLNMLGGRQVIAAVKWAKAIPGFRNLHLDDQMTLLQYSWMFLMAFALGWRSYRQSSANLLCFAPDLIINEQRMTLPCMYDQCKHMLYVSSELHRLQVSYEEYLCMKTLLLLSSVPKDGLKSQELFDEIRMTYIKELGKAIVKREGNSSQNWQRFYQLTKLLDSMHEVVENLLNYCFQTFLDKTMSIEFPEMLAEIITNQIPKYSNGNIKKLLFHQK

Variants of: B1
Settings: with ncoa2_mouse Ncoa2, Q61026
Chain of ncoa2_mouse Ncoa2, Q61026 (Q61026 whole entry): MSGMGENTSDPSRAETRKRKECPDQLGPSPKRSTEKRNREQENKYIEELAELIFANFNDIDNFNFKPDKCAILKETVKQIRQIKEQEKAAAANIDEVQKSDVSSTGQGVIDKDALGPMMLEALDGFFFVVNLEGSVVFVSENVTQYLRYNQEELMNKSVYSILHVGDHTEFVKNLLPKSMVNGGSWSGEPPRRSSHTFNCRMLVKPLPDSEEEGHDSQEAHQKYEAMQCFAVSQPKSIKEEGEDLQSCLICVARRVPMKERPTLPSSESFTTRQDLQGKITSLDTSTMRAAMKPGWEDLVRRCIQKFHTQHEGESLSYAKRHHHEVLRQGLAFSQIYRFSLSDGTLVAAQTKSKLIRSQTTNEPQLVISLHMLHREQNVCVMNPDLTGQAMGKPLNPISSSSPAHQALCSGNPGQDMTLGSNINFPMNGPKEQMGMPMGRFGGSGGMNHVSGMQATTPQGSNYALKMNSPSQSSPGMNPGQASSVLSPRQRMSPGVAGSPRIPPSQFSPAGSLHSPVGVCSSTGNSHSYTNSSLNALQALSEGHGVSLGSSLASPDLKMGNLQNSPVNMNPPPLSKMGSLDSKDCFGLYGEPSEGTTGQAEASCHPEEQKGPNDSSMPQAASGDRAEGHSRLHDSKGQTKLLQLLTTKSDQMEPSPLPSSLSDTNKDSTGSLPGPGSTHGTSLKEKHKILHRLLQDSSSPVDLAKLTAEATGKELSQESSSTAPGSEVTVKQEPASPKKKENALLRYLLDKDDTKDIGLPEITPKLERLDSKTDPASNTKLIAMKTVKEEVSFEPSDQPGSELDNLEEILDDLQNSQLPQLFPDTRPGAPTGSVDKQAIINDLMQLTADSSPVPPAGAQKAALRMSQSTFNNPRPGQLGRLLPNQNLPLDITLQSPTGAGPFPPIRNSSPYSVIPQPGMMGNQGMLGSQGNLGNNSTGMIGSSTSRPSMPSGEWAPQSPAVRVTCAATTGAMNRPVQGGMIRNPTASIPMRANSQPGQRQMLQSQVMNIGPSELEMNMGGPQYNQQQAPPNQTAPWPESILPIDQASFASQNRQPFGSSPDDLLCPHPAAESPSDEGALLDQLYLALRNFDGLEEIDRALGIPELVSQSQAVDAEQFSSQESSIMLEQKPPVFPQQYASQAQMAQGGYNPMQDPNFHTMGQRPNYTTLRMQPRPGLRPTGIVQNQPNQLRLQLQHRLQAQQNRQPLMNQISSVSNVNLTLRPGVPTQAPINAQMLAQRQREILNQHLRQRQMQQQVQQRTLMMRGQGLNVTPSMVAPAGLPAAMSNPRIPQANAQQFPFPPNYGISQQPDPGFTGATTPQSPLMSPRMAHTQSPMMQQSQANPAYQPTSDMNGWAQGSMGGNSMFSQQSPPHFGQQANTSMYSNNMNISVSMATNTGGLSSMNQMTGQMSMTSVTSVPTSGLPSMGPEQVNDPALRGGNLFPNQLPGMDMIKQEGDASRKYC

effect of a mutation on the interaction	Variant
with no effect	H726R

Variants of: B1
Settings: with ncoa2_mouse Ncoa2, Q61026
Remark: another data set of the same source

effect of a mutation on the interaction	Variant
decreasing interaction strength	H726R
